This is an account of results in publication PMC5014334.

The assay addresses glutathione-S-transferase (GST)-CDK1 fusion protein (not stated (amplified from RNA of Vero cells; African green monkey from memory)).

Turning to “TrxA-His-p17 fusion protein (natural protein)”, the in vitro kinase assay: vimentin-Ser 56 phosphorylation of GST-vimentin (2 μM) by GST-CDK1 (10 nM) and GST-cyclin B1 (10 nM) with increasing TrxA-His-p17; Ki of p17 is 100 nM.
